Reference: patent US20150315296A1 (Hoffmann-La Roche, published 2015)

T1: human Ang-2-RBD-Fc (human, UniProt O15123 275-496, limits assumed)
T1 construct: domain: RBD; not shown: Fc part
T1 sequence (looked up): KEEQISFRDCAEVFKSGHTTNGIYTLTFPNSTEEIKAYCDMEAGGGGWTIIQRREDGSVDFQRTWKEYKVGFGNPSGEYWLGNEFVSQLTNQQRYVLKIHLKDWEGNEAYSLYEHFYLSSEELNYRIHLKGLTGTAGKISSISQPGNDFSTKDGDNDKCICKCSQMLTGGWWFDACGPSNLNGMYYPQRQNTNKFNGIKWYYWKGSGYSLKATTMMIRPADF

T2: human VEGFA-121-His (human, UniProt P15692-9 27-147)
T2 construct: also called VEFGA-121-His; not shown: His tag
T2 sequence (looked up): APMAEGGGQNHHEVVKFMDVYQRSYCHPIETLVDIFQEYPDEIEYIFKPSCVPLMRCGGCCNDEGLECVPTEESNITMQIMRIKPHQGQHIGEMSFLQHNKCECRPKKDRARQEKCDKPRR


Key:
[1] = target: T1, human Ang-2-RBD-Fc; test: SPR (Biacore T200), antibody captured by anti-human F(ab')2, Ang2-RBD-Fc in solution, 25 C, apparent KD, 1:1 Langmuir
Procedure: (§1) Binding of indicated antibodies to human Ang-2-RBD-Fc was investigated by surface plasmon resonance using a BIACORE® T200 instrument (GE Healthcare). Around 8000 (RU) of goat anti human F(ab′)₂ (10 μg/ml anti human F(ab)′₂; Order Code: 28958325; GE Healthcare Bio-Sciences AB, Sweden) were coupled on a Series S CM5 chip (GE Healthcare BR-1005-30) at pH 5.0 by using an amine coupling kit supplied by the GE Healthcare. HBS-N(10 mM HEPES, 150 mM NaCl pH 7.4, GE Healthcare) was used as running buffer during the immobilization procedure. For the following kinetic characterization, sample and running buffer was PBS-T (10 mM phosphate buffered saline including 0.05% Tween20) at pH 7.4. The flow cell was set to 25° C.—and the sample block set to 12° C.—and primed with running buffer twice prior to kinetic characterization.
The bispecific antibody was captured by injecting a 5 nM solution for 25 sec at a flow of 5 μl/min. The association was measured by injection of human Ang2-RBD-Fc in various concentrations in solution for 120 sec at a flow of 30 μl/min starting with 100 nM in 1:3 serial dilutions. The dissociation phase was monitored for up to 180 sec and triggered by switching from the sample solution to running buffer. The surface was regenerated by 60 sec washing with a Glycine pH 2.1 solution at a flow rate of 30 μl/min Bulk refractive index differences were corrected by subtracting the response obtained from a goat anti human F(ab′)₂ surface. Blank injections are also subtracted (=double referencing). For calculation of apparent KD and other kinetic parameters the Langmuir 1:1 model was used.

[2] = target: T2, human VEGFA-121-His; test: SPR (Biacore T200), VEGFA-121-His amine-coupled on C1 chip, antibody in solution, 25 C, 1:1 Langmuir
Procedure: as §1, with “VEGFA-121” for “Ang-2-RBD-Fc”, “Aim for 50 RU” for “Around 8000 (RU)”, “VEFGA-121-His” for “goat anti human F(ab′)₂ (10 μg/ml anti human F(ab)′₂; Order Code: 28958325; GE Healthcare Bio-Sciences AB, Sweden)”, “C1” for “CM5”, “BR-1005-35)” for “BR-1005-30)”
The association was measured by injection the indicated antibody in various concentrations in solution for 180 sec at a flow of 30 μl/min starting with 100 nM in 1:3 serial dilutions. The dissociation phase was monitored for up to 300 sec and triggered by switching from the sample solution to running buffer. The surface was regenerated by 30 sec washing with a 0.85% H₃PO₄ (phosphoric acid) solution at a flow rate of 30 μl/min Bulk refractive index differences were corrected by subtracting the response obtained from a anti His antibody surface. Blank injections are also subtracted (=double referencing). For calculation of KD and other kinetic parameters the Langmuir 1:1 model was used.

Binder | Kd [1] | Kd [2]
xFab-Fab<ANG2-VEGF>-uncharged (Ang2VEGF-0452) (bispecific antibody, Bivalent, Fc-free CrossFab(VH-VL)-Fab format) light 1: QPGLTQPPSVSVAPGQTARITCGGNNIGSKSVHWYQQKPGQAPVLVVYDDSDRPSGIPERFSGSNSGNTATLTISRVEAGDEADYYCQVWDSSSDHYVFGTGTKVTVLRTVAAPSVFIFPPSDEQLKSGTASVVCLLNNFYPREAKVQWKVDNALQSGNSQESVTEQDSKDSTYSLSSTLTLSKADYEKHKVYACEVTHQGLSSPVTKSFNRGEC heavy: not shown light 2: EVQLVESGGGLVQPGGSLRLSCAASGYTFTNYGMNWVRQAPGKGLEWVGWINTYTGEPTYAADFKRRFTFSLDTSKSTAYLQMNSLRAEDTAVYYCAKYPHYYGSSHWYFDVWGQGTLVTVSSASVAAPSVFIFPPSDEQLKSGTASVVCLLNNFYPREAKVQWKVDNALQSGNSQESVTEQDSKDSTYSLSSTLTLSKADYEKHKVYACEVTHQGLSSPVTKSFNRGEC | 3 nM | 0.35 nM
xFab2-Fab<ANG2-VEGF>-uncharged (Ang2VEGF-0453) (bispecific antibody, Trivalent, Fc-free (CrossFab VH-VL)2-Fab format) light 1: QPGLTQPPSVSVAPGQTARITCGGNNIGSKSVHWYQQKPGQAPVLVVYDDSDRPSGIPERFSGSNSGNTATLTISRVEAGDEADYYCQVWDSSSDHYVFGTGTKVTVLRTVAAPSVFIFPPSDEQLKSGTASVVCLLNNFYPREAKVQWKVDNALQSGNSQESVTEQDSKDSTYSLSSTLTLSKADYEKHKVYACEVTHQGLSSPVTKSFNRGEC heavy: not shown light 2: EVQLVESGGGLVQPGGSLRLSCAASGYTFTNYGMNWVRQAPGKGLEWVGWINTYTGEPTYAADFKRRFTFSLDTSKSTAYLQMNSLRAEDTAVYYCAKYPHYYGSSHWYFDVWGQGTLVTVSSASVAAPSVFIFPPSDEQLKSGTASVVCLLNNFYPREAKVQWKVDNALQSGNSQESVTEQDSKDSTYSLSSTLTLSKADYEKHKVYACEVTHQGLSSPVTKSFNRGEC | 5 nM | 0.22 nM
xFab-Fab<ANG2-VEGF>-charged (Ang2VEGF-0447) (bispecific antibody, Bivalent, Fc-free CrossFab(VH-VL)-Fab format) light 1: QPGLTQPPSVSVAPGQTARITCGGNNIGSKSVHWYQQKPGQAPVLVVYDDSDRPSGIPERFSGSNSGNTATLTISRVEAGDEADYYCQVWDSSSDHYVFGTGTKVTVLRTVAAPSVFIFPPSDKRLKSGTASVVCLLNNFYPREAKVQWKVDNALQSGNSQESVTEQDSKDSTYSLSSTLTLSKADYEKHKVYACEVTHQGLSSPVTKSFNRGEC heavy: not shown light 2: EVQLVESGGGLVQPGGSLRLSCAASGYTFTNYGMNWVRQAPGKGLEWVGWINTYTGEPTYAADFKRRFTFSLDTSKSTAYLQMNSLRAEDTAVYYCAKYPHYYGSSHWYFDVWGQGTLVTVSSASVAAPSVFIFPPSDEQLKSGTASVVCLLNNFYPREAKVQWKVDNALQSGNSQESVTEQDSKDSTYSLSSTLTLSKADYEKHKVYACEVTHQGLSSPVTKSFNRGEC | 3 nM | 0.36 nM
xFab2-Fab<ANG2-VEGF>-charged (Ang2VEGF-0448) (bispecific antibody, Trivalent, Fc-free (CrossFab VH-VL)2-Fab format) light 1: QPGLTQPPSVSVAPGQTARITCGGNNIGSKSVHWYQQKPGQAPVLVVYDDSDRPSGIPERFSGSNSGNTATLTISRVEAGDEADYYCQVWDSSSDHYVFGTGTKVTVLRTVAAPSVFIFPPSDKRLKSGTASVVCLLNNFYPREAKVQWKVDNALQSGNSQESVTEQDSKDSTYSLSSTLTLSKADYEKHKVYACEVTHQGLSSPVTKSFNRGEC heavy: not shown light 2: EVQLVESGGGLVQPGGSLRLSCAASGYTFTNYGMNWVRQAPGKGLEWVGWINTYTGEPTYAADFKRRFTFSLDTSKSTAYLQMNSLRAEDTAVYYCAKYPHYYGSSHWYFDVWGQGTLVTVSSASVAAPSVFIFPPSDEQLKSGTASVVCLLNNFYPREAKVQWKVDNALQSGNSQESVTEQDSKDSTYSLSSTLTLSKADYEKHKVYACEVTHQGLSSPVTKSFNRGEC | 4 nM | 0.18 nM
